From the supplement of paper PMC5998384

Legend:
[1] = tested on: HeLa Kyoto; experiment: solubility in G1/S (NP-40 vs SDS abundance) (log2 ratio); higher = more soluble; settings: cell cycle stage: G1/S
[2] = tested on: HeLa Kyoto; experiment: melting temperature (median over replicates), in situ; higher = more thermally stable
[3] = tested on: HeLa Kyoto; experiment: solubility change mitosis vs G1/S (difference of NP-40 vs SDS log2 ratios) (log2 ratio difference); higher = more soluble in mitosis
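Wherever melting temperature (median over replicates), in situ is given: HeLa Kyoto cells synchronized by double thymidine or nocodazole block, proteins quantified by TMT10plex mass spectrometry, three independent biological replicates.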
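Wherever solubility change mitosis vs G1/S (difference of NP-40 vs SDS log2 ratios) is given: synchronized HeLa Kyoto cells (double thymidine block for G1/S, nocodazole release for mitosis), protein amounts in NP-40 versus SDS lysates quantified by mass spectrometry, three biological replicates.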
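Wherever solubility in G1/S (NP-40 vs SDS abundance) is given: HeLa Kyoto cells arrested at G1/S by double thymidine block, proteins quantified by TMT10plex mass spectrometry in mild NP-40 versus SDS extracts, three biological replicates.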

| Substance | solubility in G1/S (log2) [1] | melting temperature ([2]; cell cycle stage: G1/S) | solubility change mitosis (log2) [3] | melting temperature ([2]; cell cycle stage: mitosis) |
| --- | --- | --- | --- | --- |
| MDSELKEEIPVHEEFILCGGAETQVLKCGPWTDLFHDQSVKRPKLLIFIIPGNPGFSAFYVPFAKALYSLTNRRFPVWTISHAGHALAPKDKKILTTSEDSNAQEIKDIYGLNGQIEHKLAFLRTHVPKDMKLVLIGHSIGSYFTLQMLKRVPELPVIRAFLLFPTIERMSESPNGRIATPLLCWFRYVLYVTGYLLLKPCPETIKSLLIRRGLQVMNLENEFSPLNILEPFCLANAAYLGGQEMMEVVKRDDETIKEHLCKLTFYYGTIDPWCPKEYYEDIKKDFPEGDIRLCEKNIPHAFITHFNQEMADMIADSLKDDLSKM [LDAH] | 0.0802 | 52.3 °C | -0.331 |  |
| MAASRYRRFLKLCEEWPVDETKRGRDLGAYLRQRVAQAFREGENTQVAEPEACDQMYESLARLHSNYYKHKYPRPRDTSFSGLSLEEYKLILSTDTLEELKEIDKGMWKKLQEKFAPKGPEEDHKA [UQCC2] | 0.0537 | 45.6 °C | 0.507 |  |
| MALITLRKNLYRLSDFQMHRALAALKNKPLNHVHKVVKERLCPWLCSRQPEPFGVKFHHAHCKKFHSKNGNDLHPLGGPVFSQVSDCDRLEQNVKNEESQMFYRRLSNLTSSEEVLSFISTMETLPDTMAAGALQRICEVEKKDGDQGLPKEILENSIFQALCFQFEKEPSQLSNTSLVTALQALILLHVDPQSSLLLNLVAECQNRLRKGGMEVRNLCILGESLITLHSSGCVTLELIINQLQGEKLETFTPEDIVALYRILQACTEKVDEHQTFLNKINNFSLSIVSNLSPKLISQMLTALVVLDQSQAFPLIIKLGKYVVRHVPHFTNEELRRVLEAFIYFGHHDTFFTKALEHRVAAVCLTLDPEVVCRVMEYCSRELILSKPILNAVAETFVCQTEKFSPRQISALMEPFGKLNYLPPNASALFRKLENVLFTHFNYFPPKSLLKLLHSCSLNECHPVNFLAKIFKPLFLQRLQGKESHLDTLSRAQLTQLFLASVLECPFYKGPKLLPKYQVKSFLTPCCSLETPVDSQLYRYVKIGLTNLLGARLYFAPKVLTPYCYTIDVEIKLDEEGFVLPSTANEDIHKRIALCIDGPKRFCSNSKHLLGKEAIKQRHLQLLGYQVVQIPYHEIGMLKSRRELVEYLQRKLFSQNTVHWLQE [FASTKD3] | -0.00458 |  | -0.151 | 47.8 °C |
| H2AFV | -0.332 | 52.5 °C | 0.429 |  |
| MAAAAAGAGSGPWAAQEKQFPPALLSFFIYNPRFGPREGQEENKILFYHPNEVEKNEKIRNVGLCEAIVQFTRTFSPSKPAKSLHTQKNRQFFNEPEENFWMVMVVRNPIIEKQSKDGKPVIEYQEEELLDKVYSSVLRQCYSMYKLFNGTFLKAMEDGGVKLLKERLEKFFHRYLQTLHLQSCDLLDIFGGISFFPLDKMTYLKIQSFINRMEESLNIVKYTAFLYNDQLIWSGLEQDDMRILYKYLTTSLFPRHIEPELAGRDSPIRAEMPGNLQHYGRFLTGPLNLNDPDAKCRFPKIFVNTDDTYEELHLIVYKAMSAAVCFMIDASVHPTLDFCRRLDSIVGPQLTVLASDICEQFNINKRMSGSEKEPQFKFIYFNHMNLAEKSTVHMRKTPSVSLTSVHPDLMKILGDINSDFTRVDEDEEIIVKAMSDYWVVGKKSDRRELYVILNQKNANLIEVNEEVKKLCATQFNNIFFLD [CCZ1] | 0.0726 | 50.9 °C | -0.169 | 51.8 °C |
| MGPRARPALLLLMLLQTAVLQGRLLRSHSLHYLFMGASEQDLGLSLFEALGYVDDQLFVFYDHESRRVEPRTPWVSSRISSQMWLQLSQSLKGWDHMFTVDFWTIMENHNHSKESHTLQVILGCEMQEDNSTEGYWKYGYDGQDHLEFCPDTLDWRAAEPRAWPTKLEWERHKIRARQNRAYLERDCPAQLQQLLELGRGVLDQQVPPLVKVTHHVTSSVTTLRCRALNYYPQNITMKWLKDKQPMDAKEFEPKDVLPNGDGTYQGWITLAVPPGEEQRYTCQVEHPGLDQPLIVIWEPSPSGTLVIGVISGIAVFVVILFIGILFIILRKRQGSRGAMGHYVLAERE [HFE] | 0.207 | 55.9 °C | 0.0716 | 57.2 °C |
| MAAAGARPVELGFAESAPAWRLRSEQFPSKVGGRPAWLGAAGLPGPQALACELCGRPLSFLLQVYAPLPGRPDAFHRCIFLFCCREQPCCAGLRVFRNQLPRKNDFYSYEPPSENPPPETGESVCLQLKSGAHLCRVCGCLGPKTCSRCHKAYYCSKEHQTLDWRLGHKQACAQPDHLDHIIPDHNFLFPEFEIVIETEDEIMPEVVEKEDYSEIIGSMGEALEEELDSMAKHESREDKIFQKFKTQIALEPEQILRYGRGIAPIWISGENIPQEKDIPDCPCGAKRILEFQVMPQLLNYLKADRLGKSIDWGILAVFTCAESCSLGTGYTEEFVWKQDVTDTP [PDCD2] | -0.116 | 48.5 °C | -0.0555 | 48.3 °C |
| MGSQALPPGPMQTLIFFDMEATGLPFSQPKVTELCLLAVHRCALESPPTSQGPPPTVPPPPRVVDKLSLCVAPGKACSPAASEITGLSTAVLAAHGRQCFDDNLANLLLAFLRRQPQPWCLVAHNGDRYDFPLLQAELAMLGLTSALDGAFCVDSITALKALERASSPSEHGPRKSYSLGSIYTRLYGQSPPDSHTAEGDVLALLSICQWRPQALLRWVDAHARPFGTIRPMYGVTASARTKPRPSAVTTTAHLATTRNTSPSLGESRGTKDLPPVKDPGALSREGLLAPLGLLAILTLAVATLYGLSLATPGE [TREX1] | -0.198 | 53.5 °C | 0.329 | 56.2 °C |
| MAAVFDLDLETEEGSEGEGEPELSPADACPLAELRAAGLEPVGHYEEVELTETSVNVGPERIGPHCFELLRVLGKGGYGKVFQVRKVQGTNLGKIYAMKVLRKAKIVRNAKDTAHTRAERNILESVKHPFIVELAYAFQTGGKLYLILECLSGGELFTHLEREGIFLEDTACFYLAEITLALGHLHSQGIIYRDLKPENIMLSSQGHIKLTDFGLCKESIHEGAVTHTFCGTIEYMAPEILVRSGHNRAVDWWSLGALMYDMLTGSPPFTAENRKKTMDKIIRGKLALPPYLTPDARDLVKKFLKRNPSQRIGGGPGDAADVQRHPFFRHMNWDDLLAWRVDPPFRPCLQSEEDVSQFDTRFTRQTPVDSPDDTALSESANQAFLGFTYVAPSVLDSIKEGFSFQPKLRSPRRLNSSPRAPVSPLKFSPFEGFRPSPSLPEPTELPLPPLLPPPPPSTTAPLPIRPPSGTKKSKRGRGRPGR [RPS6KB2] | -0.0277 | 51.3 °C | 0.0325 | 50.9 °C |
| MASSLNEDPEGSRITYVKGDLFACPKTDSLAHCISEDCRMGAGIAVLFKKKFGGVQELLNQQKKSGEVAVLKRDGRYIYYLITKKRASHKPTYENLQKSLEAMKSHCLKNGVTDLSMPRIGCGLDRLQWENVSAMIEEVFEATDIKITVYTL [OARD1] | 0.299 |  | 0.139 | 50.5 °C |
| MEGQSVEELLAKAEQDEAEKLQRITVHKELELQFDLGNLLASDRNPPTGLRCAGPTPEAELQALARDNTQLLINQLWQLPTERVEEAIVARLPEPTTRLPREKPLPRPRPLTRWQQFARLKGIRPKKKTNLVWDEVSGQWRRRWGYQRARDDTKEWLIEVPGNADPLEDQFAKRIQAKKERVAKNELNRLRNLARAHKMQLPSAAGLHPTGHQSKEELGRAMQVAKVSTASVGRFQERLPKEKVPRGSGKKRKFQPLFGDFAAEKKNQLELLRVMNSKKPQLDVTRATNKQMREEDQEEAAKRRKMSQKGKRKGGRQGPGGKRKGGPPSQGGKRKGGLGGKMNSGPPGLGGKRKGGQRPGGKRRK [RRS1] | -1.81 | 55.2 °C | 1.09 | 53 °C |
| MTSPEIASLSWGQMKVKGSNTTYKDCKVWPGGSRTWDWRETGTEHSPGVQPADVKEVVEKGVQTLVIGRGMSEALKVPSSTVEYLKKHGIDVRVLQTEQAVKEYNALVAQGVRVGGVFHSTC [AAMDC] | 0.355 | 53.4 °C | 0.0391 | 52.5 °C |
| MRMSDTVTVKDETATMKDLEAEVKDTTRVENLIKSENYGKILVEKNEHCIENNIDLQRPLQSFGQTGKRSKSSSKLKLVRSLAVCEESPPPPAPEISQENQEKIQIQLTQSFEKEEKPSKDEAEKEKASDKLPRKMLSRDSSQEYTDSTGIDLHEFLVNTLKNNPRDRMMLLKLEQEILDFIGNNESPRKKFPPMTSYHRMLLHRVAAYFGLDHNVDQSGKSVIVNKTSNTRIPDQKFNEHIKDDKGEDFQKRYILKRDNSSFDKDDNQMRIRLKDDRRSKSIEEREEEYQRARDRIFSQDSLCSQENYIIDKRLQDEDASSTQQRRQIFRVNKDASGRSTNSHQSSTENELKYSEPRPWSSTDSDSSLRNLKPAVTKASSFSGISVLTRGDSSGSSKSIGRLSKTGSESSGSVGSSTGSLSHIQQPLPGTALSQSSHGAPVVYPTVSTHSSLSFDGGLNGQVASPSTSFFLLPLEAAGIPPGSILINPQTGQPFINPDGSPVVYNPPMTQQPVRSQVPGPPQPPLPAPPQQPAANHIFSQDNLGSQFSHMSLARQPSADGSDPHAAMFQSTVVLQSPQQSGYIMTAAPPPHPPPPPPPPPPPPPLPPGQPVPTAGYPASGHPVSQPVLQQQGYIQQPSPQMPACYCAPGHYHSSQPQYRPVPSVHYNSHLNQPLPQPAQQTGYQVIPNQQQNYQGIVGVQQPQSQSLVSGQPNSIGNQIQGVVIPYTSVPTYQVSLPQGSQGIPHQTYQQPVMFPNQSNQGSMPTTGMPVYYSVIPPGQQNNLSSSVGYLQHPGSEQVQFPRTTSPCSSQQLQGHQCTAGPPPPPGGGMVMMQLSVPNNPQSCAHSPPQWKQNKYYCDHQRGQKCVEFSSVDNIVQHSPQLSSPIISPAQSPAPAQLSTLKTVRPSGPPLSIMPQFSRPFVPGQGDSRYPLLGQPLQYNPPAVLHGHIPNQQGQPGSRHGNRGRRQAKKAASTDLGAGETVVGKVLEITELPDGITRMEAEKLFGELFKIGAKIRWLRDPQSQPRRHPLCCGSGDNTANPERSKPSDLASTYTVLATFPSISAAQNALKKQINSVNKFKLRTSKKHYDFHILERASSQ [R3HDM1] | 0.189 | 52.3 °C | -0.239 | 50.9 °C |
